Data published in publication PMC7306997.

Tests used:
Aβ42 amyloid fibrils = Aβ42 amyloid fibrils (UniProt P05067); assay: microfluidic diffusional sizing
[1] = molecular target: Aβ42 oligomers formed during the in vitro aggregation of Aβ42 (M1–42) (UniProt P05067); assay: TIRF single-molecule colocalisation imaging

Kd (Aβ42 amyloid fibrils): 1 µM
stoichiometry N (DesAb-O per Aβ42 monomer) (Aβ42 amyloid fibrils): 0.005
Substance: AF647-labeled DesAb-O (antibody)
percentage of coincidence of ThT and AF647-DesAb-O signals [1]: < 45%
